Assay results reported in the RNAGym collection of RNA variant scans (doi:10.7554/elife.90254).

B1: OR4K15 (parent)
chain: GUUAACGGUCAUAGGCCAUGGAAACUAGGAGCACCAUUUCGCUGCCAGUGAAGAAAUGAACAAAGAAAAUCUGGGCCAGGCAGGCAUCAAAAGAAAUAGUCUUGCGCUCAACCAGAAAGUCUGUAAUCAUUUUAAGGGUA

Variants of: B1
Assay: self-cleavage, relative activity (ratio to wild type); higher = more cleavage; in vitro, sequencing; the parent is a self-cleaving ribozyme
With G104A A126U the self-cleavage was 0.09. Work on G104A A126G yielded a self-cleavage of 0.02. With C107A A111G the self-cleavage was 0.02. Variant C105U A111G has a self-cleavage of 0.02. Variant U103C A135U has a self-cleavage of 1.34. G106U A114G showed a self-cleavage of 0. With C109U C128A the self-cleavage was 0.12. With U108C U130C the self-cleavage was 0.01. In the case of U108C U130G, the self-cleavage is reported as 0. With U103A A140U the self-cleavage was 0.46. In the case of U103G U127C, the self-cleavage is reported as 0. With U108G A135G the self-cleavage was 0.01. U108C A134G showed a self-cleavage of 0.07. U108C U127A showed a self-cleavage of 0.01. U108C U127C gave a self-cleavage of 0.01. Variant U102G A126G has a self-cleavage of 0.69. Work on U108A A111G yielded a self-cleavage of 0.01. For U108A A118G, the self-cleavage was 0. Work on C107G U108A yielded a self-cleavage of 0.01. U108C C113A showed a self-cleavage of 0.01. G104A U122C gave a self-cleavage of 0.02. C107A A114U gave a self-cleavage of 0. In the case of U103C U139C, the self-cleavage is reported as 1.15. Variant U103C U139A has a self-cleavage of 1.06. Work on U102G yielded a self-cleavage of 0.58. With U108A A117G the self-cleavage was 0.02. For U102C U103A, the self-cleavage was 0.2. In the case of U108C A140G, the self-cleavage is reported as 0.01. With U103A U124C the self-cleavage was 0.07. With U103A U131G the self-cleavage was 0.22. U103A U108A showed a self-cleavage of 0.02. Work on C105U U132C yielded a self-cleavage of 0.16. U108C U131A showed a self-cleavage of 0.02. Variant U103A A135G has a self-cleavage of 0.73. Work on U103C A129U yielded a self-cleavage of 0.29. Work on C105A U124A yielded a self-cleavage of 0.02. In the case of U108G U139C, the self-cleavage is reported as 0. Work on G104A A111G yielded a self-cleavage of 0.01. C105A showed a self-cleavage of 0.03. C105G showed a self-cleavage of 0.02. Work on C105U yielded a self-cleavage of 0.16. U108C A126G gave a self-cleavage of 0. For U108C A126U, the self-cleavage was 0.01. Variant U108C U139C has a self-cleavage of 0.01. With G106A A125U the self-cleavage was 0.05. Variant U108C C128G has a self-cleavage of 0.01. U103G G119A gave a self-cleavage of 0.01. U102C U120C gave a self-cleavage of 2.34. U103A G137A gave a self-cleavage of 0.85. G104A U132C showed a self-cleavage of 0.04. Work on U103A A118C yielded a self-cleavage of 0.53. With C107A A118U the self-cleavage was 0. For U108A A126G, the self-cleavage was 0.01. G104A A116U gave a self-cleavage of 0. With C109A U127C the self-cleavage was 0.17. In the case of C105U A114G, the self-cleavage is reported as 0.07. In the case of U108C A118C, the self-cleavage is reported as 0. In the case of U102G U130A, the self-cleavage is reported as 0.29. With G104U A140G the self-cleavage was 0. With U103C U130C the self-cleavage was 0.57. For U103C U120C, the self-cleavage was 0.4. U103C U120G gave a self-cleavage of 0.4. C107U A135G gave a self-cleavage of 0.01. With U103C U124C the self-cleavage was 0.96. For G106U, the self-cleavage was 0.01. G106C gave a self-cleavage of 0.01. G106A showed a self-cleavage of 0.01. C109U A135G gave a self-cleavage of 0.38. In the case of U103C A125U, the self-cleavage is reported as 1.45. With G104U A114U the self-cleavage was 0.02. Variant C105G A117G has a self-cleavage of 0.02. U102C U108A showed a self-cleavage of 0.01. With U102C U108C the self-cleavage was 0.01. Work on U103A U133C yielded a self-cleavage of 0.61. Work on U108A A125G yielded a self-cleavage of 0. Work on U103G U122C yielded a self-cleavage of 0.01. U102C C107U gave a self-cleavage of 0.01. For C109U U133C, the self-cleavage was 0.37. Work on U103C U133C yielded a self-cleavage of 1.32. U103C U122C showed a self-cleavage of 0.55. Work on C105U A118G yielded a self-cleavage of 0.04. For U103C A117C, the self-cleavage was 0.29. Work on U103C A117G yielded a self-cleavage of 0.71. U108A G123A gave a self-cleavage of 0.01. For C107U A134G, the self-cleavage was 0.03. Variant C107A U122C has a self-cleavage of 0.01. With U108C A114U the self-cleavage was 0.01. In the case of U108C A114G, the self-cleavage is reported as 0.01. In the case of U103A A114G, the self-cleavage is reported as 0.45. Variant C105A A134G has a self-cleavage of 0.05. U108C A135U showed a self-cleavage of 0.01. For C109A A117G, the self-cleavage was 0.59. G106A G136U gave a self-cleavage of 0.04. U103C U127C showed a self-cleavage of 0.26. Work on U103C U127A yielded a self-cleavage of 1.27. For U102C A134G, the self-cleavage was 1.14. In the case of U103G U131C, the self-cleavage is reported as 0.01. U103C G104A gave a self-cleavage of 0.02. For U108A U131C, the self-cleavage was 0.01. G106U U108A showed a self-cleavage of 0.01. U102C U133G showed a self-cleavage of 2.02. U102C U133C showed a self-cleavage of 2.27. Work on U103C A111G yielded a self-cleavage of 0.02. For U108A U130G, the self-cleavage was 0. Variant U103C A140U has a self-cleavage of 1.14. Work on G106A U127A yielded a self-cleavage of 0.01. U103G G104A gave a self-cleavage of 0.59. In the case of U108A A129G, the self-cleavage is reported as 0. Variant U108A A116U has a self-cleavage of 0.02. For U102C U130A, the self-cleavage was 1.61. For C107U A111G, the self-cleavage was 0. With C105G A135G the self-cleavage was 0.03. For C107G A118G, the self-cleavage was 0.01. Variant U103C A114G has a self-cleavage of 0.51. For U102C A129G, the self-cleavage was 1.74. Work on U108C U120C yielded a self-cleavage of 0.01. For U108C U120A, the self-cleavage was 0.01. For U102C U132C, the self-cleavage was 2.04. G106A U130C showed a self-cleavage of 0.01. For G106U U122C, the self-cleavage was 0. Work on G106U U132A yielded a self-cleavage of 0.03. Variant C107U U130C has a self-cleavage of 0. For U108C A125G, the self-cleavage was 0. Work on U102C G123A yielded a self-cleavage of 2.17. For U102C G123C, the self-cleavage was 1.33. In the case of C105U A116G, the self-cleavage is reported as 0.03. With C105A U122A the self-cleavage was 0. Work on U108A U124C yielded a self-cleavage of 0.01. Work on C109A U122C yielded a self-cleavage of 0.28. U108C G115A showed a self-cleavage of 0. Variant U103A A134U has a self-cleavage of 0.87. Variant U103A A134G has a self-cleavage of 0.27. Variant U103A A116G has a self-cleavage of 0.14. In the case of U103C U132C, the self-cleavage is reported as 0.85. For U103A A111G, the self-cleavage was 0.01. U108C A116G gave a self-cleavage of 0.01. Variant U108C A116U has a self-cleavage of 0. In the case of G106A A111U, the self-cleavage is reported as 0. Variant G106A A111G has a self-cleavage of 0.01. U108A U127A gave a self-cleavage of 0.03. In the case of C105A U131C, the self-cleavage is reported as 0.05. In the case of U103A A126G, the self-cleavage is reported as 0.34. In the case of U103C U108A, the self-cleavage is reported as 0.02. G106U A118G gave a self-cleavage of 0.02. U102C A135G gave a self-cleavage of 1.6. Variant C109A A114G has a self-cleavage of 0.11. Variant U103C A118U has a self-cleavage of 0.3. With U103A U122C the self-cleavage was 0.35. U108A A114G gave a self-cleavage of 0.02. For U108C A117C, the self-cleavage was 0.06. U108C A117G gave a self-cleavage of 0.01. C107U U108C showed a self-cleavage of 0.02. Work on U102C U131C yielded a self-cleavage of 2.13. Variant G106C A118G has a self-cleavage of 0. Variant C107U A118U has a self-cleavage of 0.01. For C107U A118G, the self-cleavage was 0. In the case of U103C, the self-cleavage is reported as 0.7. For U103G, the self-cleavage was 0.03. For U103A, the self-cleavage was 0.39. For U102C A126U, the self-cleavage was 1.39. With U102C A126G the self-cleavage was 1.89. Variant U108A A135U has a self-cleavage of 0.02. U108C A111U showed a self-cleavage of 0. U108C A111C gave a self-cleavage of 0.01. Work on U108C A111G yielded a self-cleavage of 0.01. C109A A118G gave a self-cleavage of 0.32. In the case of U108C A110U, the self-cleavage is reported as 0.01.
